These results are taken from patent publication US20220119534A1 (DRAGONFLY THERAPEUTICS, published 2022).

One test deals with T1, mFc-cNKG2D (cynomolgus monkey, UniProt P61252 73-216).
T1 construct: extracellular domain; Made in house (Dragonfly Tx); also called recombinant cyno NKG2D extracellular domain (ECD); mFc-tagged cyno NKG2D dimer; not shown: mouse Fc tag
T1 sequence (looked up): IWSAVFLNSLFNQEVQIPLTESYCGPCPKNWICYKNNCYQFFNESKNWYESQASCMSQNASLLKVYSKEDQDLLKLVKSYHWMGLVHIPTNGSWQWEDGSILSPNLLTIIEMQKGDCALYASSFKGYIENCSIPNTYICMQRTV
Put plainly: SPR Biacore 37 C; mFc-tagged cyno NKG2D dimer, TriNKET as analyte; kinetics fit; average of 4. For orientation: SPR reads the build-up and loss of mass on a sensor chip optically.

The target in a further test is T2, mFc-hNKG2D (human, UniProt P26718 73-216).
T2 construct: extracellular domain; Made in house (Dragonfly Tx); the order of tag and ECD follows the name mFc-hNKG2D; also called mFc-tagged human NKG2D; not shown: mouse Fc tag
T2 sequence (looked up): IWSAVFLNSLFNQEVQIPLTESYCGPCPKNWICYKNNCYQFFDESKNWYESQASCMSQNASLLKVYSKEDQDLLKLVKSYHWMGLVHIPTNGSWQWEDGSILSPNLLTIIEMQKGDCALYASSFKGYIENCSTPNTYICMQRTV
Put plainly: SPR Biacore 8K 37 C; mFc-hNKG2D captured on anti-mFc chip, TriNKET as analyte; 1:1 kinetic fit; un-oxidized control.

The target in test [1] is T3, Human CLEC12A-His (human, UniProt Q5QGZ9 65-265).
T3 construct: Recombinant soluble protein made in house (Dragonfly Tx); The hCLEC12A spot of the HuProt array is written under this molecule as well; also called hCLEC12A-His; hCLEC12A; not shown: His tag
T3 sequence: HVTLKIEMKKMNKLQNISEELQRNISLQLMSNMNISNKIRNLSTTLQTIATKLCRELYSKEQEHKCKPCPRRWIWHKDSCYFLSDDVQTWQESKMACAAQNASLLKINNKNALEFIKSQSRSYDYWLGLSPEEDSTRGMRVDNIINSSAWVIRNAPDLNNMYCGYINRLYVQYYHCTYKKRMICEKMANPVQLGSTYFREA
Nature of the test: SPR Biacore 8K 37 C; TriNKET captured on anti-hFc chip, hCLEC12A-His as analyte; 1:1 fit; after 2 wks 40 C at pH 5.0, n=2.

Test [2] addresses T3, Human CLEC12A-His. Nature of the test: SPR Biacore 8K 37 C; TriNKET captured on anti-hFc chip, hCLEC12A-His as analyte; 1:1 fit; after 4 wks 40 C in HST pH 6.0, n=2.
Description: Briefly, human Fc specific antibodies were covalently immobilized at a density ˜8000-10000 resonance units (RU) on carboxy methyl dextran matrix of a CM5 biosensor chip via amine-coupling chemistry to create an anti-hFc IgG chip. […] Association was monitored for 300 seconds and dissociation was monitored for 600 seconds. Surfaces were regenerated between cycles with three pulses of 10 mM glycine-HCl, pH 1.7 injected for 20 seconds at 100 μL/min. HBS-EP+ (1×) with 0.1 mg/mL BSA buffer was used throughout the experiment. Data were analyzed using Biacore 8K Insight evaluation software (GE Healthcare). The kinetic rate constants and overall affinity were obtained using 1:1 kinetic fit binding model (FIGS. 71A-71B).

Description for mFc-hNKG2D: Association was monitored for 60 seconds and dissociation was monitored for 60 seconds. Surfaces were regenerated between cycles with three pulses of 10 mM glycine-HCl, pH 1.7 injected for 20 seconds at 100 μL/min. HBS-EP+ (1×) buffer was used throughout the experiment. Data were analyzed using Biacore 8K Insight evaluation software (GE Healthcare).

B1: F3'-1602 TriNKET (bispecific antibody, human IgG1, kappa)
chain: QLQLQESGPGLVKPSETLSLTCTVSGFSLTNYGLHWIRQPPGKCLEWIGVIWSGGKTDYNPSLKSRVTISKDTSKNQFSLKLSSVQAADTAVYYCAKYDYDDSLDYWGQGTLVTVSSGGGGSGGGGSGGGGSGGGGSDIQMTQSPSSLSASVGDRVTITCHASQNINFWLSWYQQKPGKAPKLLIYEASNLHTGVPSRFSGSGSGTRFTLTISSLQPEDIATYYCQQSHSYPLTFGCGTKLEIKGSDKTHTCPPCPAPELLGGPSVFLFPPKPKDTLMISRTPEVTCVVVDVSHEDPEVKFNWYVDGVEVHNAKTKPREEQYNSTYRVVSVLTVLHQDWLNGKEYKCKVSNKALPAPIEKTISKAKGQPREPRVYTLPPCRDELTKNQVSLTCLVKGFYPSDIAVEWESNGQPENNYKTTPPVLVSDGSFTLYSKLTVDKSRWQQGNVFSCSVMHEALHNHYTQKSLSLSPG
heavy: EVQLVESGGGLVKPGGSLRLSCAASGFTFSSYSMNWVRQAPGKGLEWVSSISSSSSYIYYADSVKGRFTISRDNAKNSLYLQMNSLRAEDTAVYYCARGAPIGAAAGWFDPWGQGTLVTVSSASTKGPSVFPLAPSSKSTSGGTAALGCLVKDYFPEPVTVSWNSGALTSGVHTFPAVLQSSGLYSLSSVVTVPSSSLGTQTYICNVNHKPSNTKVDKKVEPKSCDKTHTCPPCPAPELLGGPSVFLFPPKPKDTLMISRTPEVTCVVVDVSHEDPEVKFNWYVDGVEVHNAKTKPREEQYNSTYRVVSVLTVLHQDWLNGKEYKCKVSNKALPAPIEKTISKAKGQPREPQVCTLPPSRDELTENQVSLTCLVKGFYPSDIAVEWESNGQPENNYKTTPPVLDSDGSFFLYSWLTVDKSRWQQGNVFSCSVMHEALHNHYTQKSLSLSPG
light: DIQMTQSPSSVSASVGDRVTITCRASQGISSWLAWYQQKPGKAPKLLIYAASSLQSGVPSRFSGSGSGTDFTLTISSLQPEDFATYYCQQGVSFPRTFGGGTKVEIKRTVAAPSVFIFPPSDEQLKSGTASVVCLLNNFYPREAKVQWKVDNALQSGNSQESVTEQDSKDSTYSLSSTLTLSKADYEKHKVYACEVTHQGLSSPVTKSFNRGEC
notes: Trispecific F3' format: CLEC12A scFv-Fc paired with NKG2D Fab-Fc; Stressed and control samples of the stability studies are the same molecule; also called AB0237
Turning to B1, the Kd with mFc-cNKG2D came to 0.839 µM; in the test with mFc-hNKG2D it was 0.75 µM; in the test with Human CLEC12A-His [1], 0.00101 µM; with Human CLEC12A-His [2], 0.00169 µM. Further, the koff is 0.107 s⁻¹ in the test with mFc-hNKG2D, 0.000871 s⁻¹ in the test with Human CLEC12A-His [1] and 0.00214 s⁻¹ with Human CLEC12A-His [2]. The on-rate constant (kon) with mFc-hNKG2D turned out to be 143000 M⁻¹ s⁻¹; with Human CLEC12A-His [1] it was 865000 M⁻¹ s⁻¹; with Human CLEC12A-His [2] it was 1.24e+06 M⁻¹ s⁻¹.

One may read the Kd as the equilibrium constant for the complex coming apart. The term koff denotes a measure of how fast the partners let go of each other. High values mean fast dissociation, low ones slow dissociation. The kon is a measure of how fast the partners come together. Read a high kon as fast association.
